The values that follow come from article PMC10058238, “Mechanism of sphingolipid homeostasis revealed by structural analysis of Arabidopsis SPT-ORM1 complex” (Science Advances, 2023).

Substrate in data set [1]: CCCCCCCCCCCCCCCC(=O)SCCNC(=O)CCNC(=O)[C@H](O)C(C)(C)COP(=O)(O)OP(=O)(O)OC[C@H]1O[C@@H](n2cnc3c(N)ncnc32)[C@H](O)[C@@H]1OP(=O)(O)O
The data set can be described thus: purified protein. The class given is biochemical, Arabidopsis thaliana. The note with it: 100 mM L-serine, 25 μM PLP, pH 7.5, 30 °C, active site in LCB2a/LCB1.

Substrate in data set [2]: N[C@@H](CO)C(=O)O
The experiment in a line: purified protein. Conditions: 100 μM palmitoyl-CoA, 25 μM PLP, pH 7.5, 30 °C, active site in LCB2a/LCB1.

Usually Km stands for the concentration of substrate that gives half-maximal velocity.

B1: AtSPT-ORM1 complex (LCB1, LCB2a, SPTssa, ORM1) (Arabidopsis thaliana) (protein)
chain 1: MITIPYLTAVSTYFSYGLLFAFGQLRDFFRRFIDWWFTSNLQGYAPICLGHEDFYIRRLYHRIQDCFERPISSAPDAWFDVVERYSNDNNKTLKRTTKTSRCLNLGSYNYLGFGSFDEYCTPRVIESLKKFSASTCSSRVDAGTTSVHAELEECVTRFVGKPAAVVFGMGYATNSAIIPVLIGKGGLIISDSLNHSSIVNGARGSGATIRVFQHNTPSHLERVLREQIAEGQPRTHRPWKKIIVVVEGIYSMEGEICHLPEVVAICKKYKAYVYLDEAHSIGAIGKTGKGICELLGVDTADVDVMMGTFTKSFGSCGGYIAGSKELIQYLKHQCPAHLYATSIPTPSAQQIISAIKVILGEDGSNRGAQKLARIRENSNFFRAELQKMGFEVLGDNDSPVMPIMLYNPAKIPAFSRECLRQKVAVVVVGFPATPLLLARARICISASHSREDLIRALKVISKVGDLSGIKYFPAEPKKIEQSKNDIKLD
chain 2: MANLYVKAVPPPDMNRNTEWFMYPGVWTTYMLILFFGWLVVLSVSGCSPGMAWTVVNLAHFVVTYHSFHWMKGTPFADDQGIYNGLTWWEQMDNGQQLTRNRKFLTLVPVVLYLIASHTTDYRHPWLFLNTLAVMVLVVAKFPNMHKVRIFGINGDK
chain 3: MASNLVEMFNAALNWVTMILESPSARVVLFGVPIRGHFFVEGLLGVVIIILLTRKSYKPPKRPLTEQEIDELCDEWVPEPLIPPITEDMKHEPPVLESAAGPHTTVNGKDVVNFASANYLGLIGHEKLLESCTSALEKYGVGSCGPRGFYGTIDVHLDCETRISKFLGTPDSILYSYGLSTMFSTIPCFCKKGDVIVADEGVHWGIQNGLQLSRSTIVYFKHNDMESLRITLEKIMTKYKRSKNLRRYIVAEAVYQNSGQIAPLDEIVKLKEKYRFRVILDESNSFGVLGRSGRGLAEHHSVPIEKIDVVTAAMGHALATEGGFCTGNARIIDYQRLSSSGYVFSASLPPYLASAAITAIDVIDQNPDMLVKLKQNVALLWKGLSDIKGMSLTSNRESPIVFLKLEKSSGSAKDDLLLLEKMADRALKEDSLLVVSSKRSFLDKCRLPVGIKLYVSAGHSESDLLKASESLKRLASELLLKS
notes: full-length codon-optimized cDNAs; N-terminal Flag on SPTssa, other chains untagged; HEK293F, GDN; dimer of 1:1:1:1 protomers; endogenous ceramide copurifies; with Long chain base biosynthesis protein 1; Serine palmitoyltransferase small subunit A
For B1, the K0.5 in “purified protein [1]” amounted to 69.05 ± 6.13 µM. Besides, in “purified protein [2]”, the Km is on record as 10.44 ± 0.88 mM.

B2: AtSPT complex (LCB1, LCB2a, SPTssa) (Arabidopsis thaliana) (protein)
chain 1: MITIPYLTAVSTYFSYGLLFAFGQLRDFFRRFIDWWFTSNLQGYAPICLGHEDFYIRRLYHRIQDCFERPISSAPDAWFDVVERYSNDNNKTLKRTTKTSRCLNLGSYNYLGFGSFDEYCTPRVIESLKKFSASTCSSRVDAGTTSVHAELEECVTRFVGKPAAVVFGMGYATNSAIIPVLIGKGGLIISDSLNHSSIVNGARGSGATIRVFQHNTPSHLERVLREQIAEGQPRTHRPWKKIIVVVEGIYSMEGEICHLPEVVAICKKYKAYVYLDEAHSIGAIGKTGKGICELLGVDTADVDVMMGTFTKSFGSCGGYIAGSKELIQYLKHQCPAHLYATSIPTPSAQQIISAIKVILGEDGSNRGAQKLARIRENSNFFRAELQKMGFEVLGDNDSPVMPIMLYNPAKIPAFSRECLRQKVAVVVVGFPATPLLLARARICISASHSREDLIRALKVISKVGDLSGIKYFPAEPKKIEQSKNDIKLD
chain 2: MASNLVEMFNAALNWVTMILESPSARVVLFGVPIRGHFFVEGLLGVVIIILLTRKSYKPPKRPLTEQEIDELCDEWVPEPLIPPITEDMKHEPPVLESAAGPHTTVNGKDVVNFASANYLGLIGHEKLLESCTSALEKYGVGSCGPRGFYGTIDVHLDCETRISKFLGTPDSILYSYGLSTMFSTIPCFCKKGDVIVADEGVHWGIQNGLQLSRSTIVYFKHNDMESLRITLEKIMTKYKRSKNLRRYIVAEAVYQNSGQIAPLDEIVKLKEKYRFRVILDESNSFGVLGRSGRGLAEHHSVPIEKIDVVTAAMGHALATEGGFCTGNARIIDYQRLSSSGYVFSASLPPYLASAAITAIDVIDQNPDMLVKLKQNVALLWKGLSDIKGMSLTSNRESPIVFLKLEKSSGSAKDDLLLLEKMADRALKEDSLLVVSSKRSFLDKCRLPVGIKLYVSAGHSESDLLKASESLKRLASELLLKS
notes: full-length codon-optimized cDNAs; N-terminal Flag on SPTssa, other chains untagged; HEK293F, GDN; without ORM1; with Serine palmitoyltransferase small subunit A
As for B2, in “purified protein [1]”, the K0.5 was 8.29 ± 0.80 µM. Further, in “purified protein [2]”, the Km is 7.33 ± 0.65 mM.
